This is an account of results in publication PMC9388126 (Proceedings of the National Academy of Sciences of the …, 2022).

Data set [1] addresses clawed frog GNPTG (gamma subunit of GNPT) (clawed frog (Xenopus laevis)). Description: crystal structure.
Data set [2] deals with the molecule itself. Description: crystal structure.

In data set [1], “clawed frog GNPTG (gamma subunit of GNPT) (natural protein)” came in with a stoichiometry N of 2.

B1: zebrafish GNPTAB minimal construct (catalytic and EF-hand domains) (domain or fragment)
chain: EVVVEWSRDQYHVLFDSYRDNVAGKSFQTRLCLPMPIDVVYTWVNGTDPKLIKEVTELKRSKRDPLIPECQGKQTPEKDKCYRDDNTASRFEDNEELRYSLRSIEKHAPWVRHIFIVTNGQIPSWLNLDNPRVSVVTHQDIFQNQTHLPTFSSPAIETHIHRIPGLSQKFIYLNDDVMFGKDVWPDDFYSHSKGQKVYLTWPVPNDTFADSLRYVNRLLNAQFGFTSRKVPAHMPHMIDRLIMQELQDTFPQEFDKTSSHRVRHSEDMQFAFSYFYFLMSAVQQLNISEVFDEIDTDHSGVLSDREIRTLATRIHELPLSLQDLTSLEQMLINCSKSLPSNLTHLHAVSPTQEAYYDPSMPPVTKGLVIHCKPITERIHKAFKDQNKYKFEIMGEEEIAFKMIRTNVSHVVGQLDDIRKNPRKFICLNDNIDHIHKDAGTVKAVLRDFYESMFPLPSQFELPREYRNRFLHMTELQEWRIYRDKL
modifications: N-linked glycans (up to five visible on each chain)
With B1, the “stoichiometry N” value in data set [2] turned out to be 2.

The stoichiometry N is a count of units in the complex or per binding partner.
